Target: the molecule itself
Test: SAXS; molecular weight from forward scattering I(0) against a bovine serum albumin standard; free protein at at least three concentrations in 100 mM KCl, 5 mM MgCl2, 10 mM Tris-HCl (pH 7.5), 5% glycerol

B1: CYT-18* (Neurospora crassa mitochondrial tyrosyl-tRNA synthetase lacking the mitochondrial targeting sequence and most of the C-tail) (enzyme)
chain: MLRREFGPKYTAKINEAEENWQARAEAIKKGKKQNTWDLFEERGYVKDTAGTKEHIAELMRTRRIGAYVGIDPTAPSLHVGHLLPLMPLFWMYLEGYKAFTLIGGSTAKIGDPTGRLKSRDHLSSSDATMNMTKIHYQLKKLWENVDTQMRARGYEADWARKRGIVNNNHWWNKQPMLEVLRRVGHALRIGPMLSRDTVKNKMTQGDGVSFAEFTYPIMQGWDWFELFYQQGVQMQIGGSDQYGNIISGLEVVKAARESEPDPQERKYVTPKTALDECVGFTVPLLTDSSGAKFGKSAGNAIWLDPYQTSVFDFYGYFVRRSDQEVENLLKLFTFMPISEITKTMEEHIKDPSKRVAQHTLAREVVTLVHGKQEASAAEDQHRMMYTGQMTIPQVSRAKDAATGGDQYKTISDQPVTLNNAPRIDMILPESLIMGKSIGRILYAAGLASSTTEGHKLAAAQGCYVGGAHRAGGENVTMNPDLISFMPVKLWFPGETQRYLINGNLLILRKGKHNVRVIQMVSDVEYAASGQTYPGQSFTGAVRKLNEIMKNL
notes: extra N-terminal methionine of the expression construct; stop codons introduced after Leu583; Derived from pEX560 (wild-type CYT-18, amino acids 33-669); also called CYT18/ΔC-tail; N. crassa mtTyrRS
  stoichiometry N: 2
